The series deals with thrombin (UniProt P00734;P00734 328-363;364-622). Put plainly: SERS mapping on gold nanopillars; thrombin 0.0873-87.3 nM; complex bands 822, 1140, 1558 cm-1; no Kd given; Thiolated aptamer on gold-coated Si nanopillars, MCH passivation (stated for quadruplex control); PBS pH 7.4 listed; thrombin incubation buffer and temperature.

The values that follow come from paper PMC5884298.

For GGTTGGTGTGGTTGG (structured_DNA, 5'-HS-(CH2)6 thiol linker (printed HS-(CH2)5-CH2-D/)) [TBA15 (thiolated thrombin-binding aptamer)], the binding result is on record as “binds”.
